Assay [1] deals with L-SIGN expressed on K562 cells (human) (UniProt Q9H2X3). Nature of the assay: flow cytometry on K562/L-SIGN cells. A general note: In flow cytometry, cells or beads pass a laser one at a time.
Assay [2] concerns the target recombinant human L-SIGN (human) (UniProt Q9H2X3). Nature of the assay: ELISA on recombinant L-SIGN. For orientation: ELISA stands for enzyme-linked immunosorbent assay.
The target in assay [3] is recombinant human DC-SIGN (human) (UniProt Q9NNX6). Nature of the assay: ELISA on recombinant DC-SIGN.
Chain of UniProt Q9NNX6 (Q9NNX6 59-404 limits assumed): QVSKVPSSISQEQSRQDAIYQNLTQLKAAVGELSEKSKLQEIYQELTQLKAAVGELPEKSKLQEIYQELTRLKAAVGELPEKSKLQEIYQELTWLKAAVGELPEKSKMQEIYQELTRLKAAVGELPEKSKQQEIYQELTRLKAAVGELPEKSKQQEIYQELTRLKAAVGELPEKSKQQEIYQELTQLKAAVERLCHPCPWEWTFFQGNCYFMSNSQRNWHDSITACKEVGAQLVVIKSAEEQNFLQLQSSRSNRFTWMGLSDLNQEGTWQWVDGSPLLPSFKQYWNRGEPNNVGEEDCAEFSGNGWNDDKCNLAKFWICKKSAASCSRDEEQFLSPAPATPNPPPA

B1: additional IgG1k antibody clone A10 (antibody, from a related filing, V domains shown)
VH: EVQLQQSGPELEKPGASVKISCKASGYSFTGYNMNWVKQSNGKSLEWIGNIDPYYGDITYNQKFKGKATLTVDKSSSTAYMQLKSLTSEDSAVYYCARTATALYTMDYWGQGTSVTVSS
VL: EIVLTQSPAIMSASLGERVTMTCTASSSVSSSYLHWYQQKPGSSPKLWIYSTSNLASGVPARFSGSGSGTSYSLTISSMEAEDAATYYCHQYHRSPQTFGGGTKLEIK
Take B1: the Geo. Mean Flourecence in assay [1] is 21.3. The OD405 was found to be 2.9 OD405 in assay [2] and 0.1 OD405 in assay [3].

Source of the values: patent publication US20120107301A1.
